Experimental data published in patent publication US20170363643A1.

Key:
[1] = target: His-tagged recombinant human SMN protein (ProteinTech, catalog # ag14333) (human) (UniProt Q16637); experiment: Erenna sandwich assay, capture MABE230; SMN 2 pg/mL, MPs 10 µg/well, Det Ab 100 ng/mL, Cap Ab/MP 12.5 µg/mg
[2] = target: His-tagged recombinant human SMN protein (ProteinTech, catalog # ag14333) (human) (UniProt Q16637); experiment: Erenna sandwich assay, capture MABE230; SMN 2 pg/mL, MPs 10 µg/well, Det Ab 50 ng/mL, Cap Ab/MP 12.5 µg/mg
[3] = target: His-tagged recombinant human SMN protein (ProteinTech, catalog # ag14333) (human) (UniProt Q16637); experiment: Erenna sandwich assay, capture MABE230 12.5 µg/mg MPs; Det Ab 500 ng/mL; SMN 1.85 pg/mL
[4] = target: His-tagged recombinant human SMN protein (ProteinTech, catalog # ag14333) (human) (UniProt Q16637); experiment: Erenna sandwich assay, capture MABE230; human CSF sample 5 spiked with recombinant SMN 10.0 pg/mL (endogenous SMN also present)
[5] = target: His-tagged recombinant human SMN protein (ProteinTech, catalog # ag14333) (human) (UniProt Q16637); experiment: Erenna sandwich assay, capture MABE230; human CSF sample 3 spiked with recombinant SMN 5.0 pg/mL (endogenous SMN also present)
[6] = target: His-tagged recombinant human SMN protein (ProteinTech, catalog # ag14333) (human) (UniProt Q16637); experiment: Erenna sandwich assay, capture MABE230 12.5 µg/mg MPs; Det Ab 1000 ng/mL; SMN 7.41 pg/mL
[7] = target: His-tagged recombinant human SMN protein (ProteinTech, catalog # ag14333) (human) (UniProt Q16637); experiment: Erenna sandwich assay, capture MABE230 12.5 µg/mg MPs; Det Ab 500 ng/mL; SMN 66.67 pg/mL
[8] = target: His-tagged recombinant human SMN protein (ProteinTech, catalog # ag14333) (human) (UniProt Q16637); experiment: Erenna sandwich assay, capture MABE230 12.5 µg/mg MPs; Det Ab 1000 ng/mL; SMN 200.00 pg/mL
[9] = target: His-tagged recombinant human SMN protein (ProteinTech, catalog # ag14333) (human) (UniProt Q16637); experiment: Erenna sandwich assay, capture MABE230; SMN 2 pg/mL, MPs 5 µg/well, Det Ab 50 ng/mL, Cap Ab/MP 12.5 µg/mg
[10] = target: His-tagged recombinant human SMN protein (ProteinTech, catalog # ag14333) (human) (UniProt Q16637); experiment: Erenna sandwich assay, capture MABE230 12.5 µg/mg MPs; Det Ab 1000 ng/mL; SMN 0.46 pg/mL
[11] = target: His-tagged recombinant human SMN protein (ProteinTech, catalog # ag14333) (human) (UniProt Q16637); experiment: Erenna sandwich assay, capture MABE230; SMN 2 pg/mL, MPs 5 µg/well, Det Ab 50 ng/mL, Cap Ab/MP 25 µg/mg
[12] = target: His-tagged recombinant human SMN protein (ProteinTech, catalog # ag14333) (human) (UniProt Q16637); experiment: Erenna sandwich assay, capture MABE230; SMN 2 pg/mL, MPs 10 µg/well, Det Ab 1000 ng/mL, Cap Ab/MP 12.5 µg/mg
[13] = target: His-tagged recombinant human SMN protein (ProteinTech, catalog # ag14333) (human) (UniProt Q16637); experiment: Erenna sandwich assay, capture MABE230; human CSF sample 2 spiked with recombinant SMN 10.0 pg/mL (endogenous SMN also present)
[14] = target: His-tagged recombinant human SMN protein (ProteinTech, catalog # ag14333) (human) (UniProt Q16637); experiment: Erenna sandwich assay, capture MABE230; human CSF sample 1 spiked with recombinant SMN 5.0 pg/mL (endogenous SMN also present)
[15] = target: His-tagged recombinant human SMN protein (ProteinTech, catalog # ag14333) (human) (UniProt Q16637); experiment: Erenna sandwich assay, capture MABE230; human CSF sample 3 spiked with recombinant SMN 10.0 pg/mL (endogenous SMN also present)
[16] = target: His-tagged recombinant human SMN protein (ProteinTech, catalog # ag14333) (human) (UniProt Q16637); experiment: Erenna sandwich assay, capture MABE230; SMN 2 pg/mL, MPs 10 µg/well, Det Ab 100 ng/mL, Cap Ab/MP 25 µg/mg
[17] = target: His-tagged recombinant human SMN protein (ProteinTech, catalog # ag14333) (human) (UniProt Q16637); experiment: Erenna sandwich assay, capture MABE230; human CSF sample 4 spiked with recombinant SMN 5.0 pg/mL (endogenous SMN also present)
[18] = target: His-tagged recombinant human SMN protein (ProteinTech, catalog # ag14333) (human) (UniProt Q16637); experiment: Erenna sandwich assay, capture MABE230 12.5 µg/mg MPs; Det Ab 500 ng/mL; SMN 3.70 pg/mL
[19] = target: endogenous SMN protein in human CSF (human) (UniProt Q16637); experiment: Erenna sandwich assay, capture MABE230; human CSF sample 1, unspiked (endogenous SMN only)
[20] = target: endogenous SMN protein in human CSF (human) (UniProt Q16637); experiment: Erenna sandwich assay, capture MABE230; human CSF sample 2, unspiked (endogenous SMN only)
[21] = target: His-tagged recombinant human SMN protein (ProteinTech, catalog # ag14333) (human) (UniProt Q16637); experiment: Erenna sandwich assay, capture MABE230 12.5 µg/mg MPs; Det Ab 500 ng/mL; SMN 7.41 pg/mL
[22] = target: His-tagged recombinant human SMN protein (ProteinTech, catalog # ag14333) (human) (UniProt Q16637); experiment: Erenna sandwich assay, capture MABE230 12.5 µg/mg MPs; Det Ab 1000 ng/mL; SMN 0.06 pg/mL

ProteinTech anti-SMN2 (catalog #60154-1-Ig) (antibody)
detected events (DE) (detected events) [1]: 1050 | detected events (DE) (detected events) [2]: 681 | detected events (DE) (detected events) [3]: 1850 | event photons (EP) (event photons) [3]: 267000 | detected events (DE) (detected events) [4]: 9440 | detected events (DE) (detected events) [5]: 5980 | detected events (DE) (detected events) [6]: 7200 | event photons (EP) (event photons) [6]: 1.32e+06 | detected events (DE) (detected events) [7]: 12000 | event photons (EP) (event photons) [7]: 9.53e+06 | detected events (DE) (detected events) [8]: 9360 | event photons (EP) (event photons) [8]: 2.04e+07 | detected events (DE) (detected events) [9]: 450 | detected events (DE) (detected events) [10]: 630 | event photons (EP) (event photons) [10]: 87400 | detected events (DE) (detected events) [11]: 560 | detected events (DE) (detected events) [12]: 2920 | detected events (DE) (detected events) [13]: 9630 | detected events (DE) (detected events) [14]: 5070 | detected events (DE) (detected events) [15]: 9140 | detected events (DE) (detected events) [16]: 1130 | detected events (DE) (detected events) [17]: 5810 | detected events (DE) (detected events) [18]: 3190 | event photons (EP) (event photons) [18]: 497000 | detected events (DE) (detected events) [19]: 330 | detected events (DE) (detected events) [20]: 240 | detected events (DE) (detected events) [21]: 5960 | event photons (EP) (event photons) [21]: 1.05e+06 | detected events (DE) (detected events) [22]: 125 | event photons (EP) (event photons) [22]: 15900
